Earlier results on one substance are cited in paper PMC8746970, “Determination of the Peptide AWRK6 in Rat Plasma by Liquid Chromatography-Tandem Mass Spectrometry (LC-MS/MS) and Its Application to Pharmacokinetics” (Molecules, 2021).

The conditions of this data set: in vivo; cited from earlier work.

On to glucagon-like peptide-1 [GLP-1], for which the elimination half-life was ~ 2 min.
